Values joined by “and” are separate entries in the source; they are usually repeats but may differ in a detail not shown here. Equal values may be shown once. Where a SMILES comes first, the peptide text is derived from it. Side-chain parts run from the residue outwards. [ ]: non-standard residue; d: D form. The star is where a group is joined. 1‑Phenylbutyric acid = 1-phenylbutyric acid N-terminal cap; DOTA = O=C(O)CN1CCN(CC(=O)O)CCN(CC(=O)*)CCN(CC(=O)O)CC1; Butanoyl(4-Ph) = O=C(CCCc1ccccc1)*; Ahx = NCCCCCC(=O)O
How the values were obtained:
A375/MC1R tumors = test: Efficacy in SCID mice bearing A375/MC1R tumors; assay type: in vivo; settings: after injection; control groups
Experimental: Mice were observed daily for health and twice per week weighed and tumor volumes measured by caliper. When the tumors reach 2000 mm^3 (experimental endpoint), animals were euthanized. Euthanizations prior to 2000 mm^3 were due to clinical endpoints, i.e. predominantly due to tumor ulceration.
1.9-3.3 μCi of MC1RL-DOTA-^225Ac, 1.8-2.7 μCi of scrambled peptide-DOTA-^225Ac, an excess of the cold agent (MC1RL-DOTA-^139La) and saline were injected to the SCID mice bearing A375/MC1R tumors injection (n=10 per group, volume of the tumors: 57-266 mm3). Mice were observed daily for health and twice per week weighed and tumor volumes measured by caliper. When the tumors reach 2000 mm^3 (experimental endpoint), animals were euthanized. Euthanizations prior to 2000 mm^3 were due to clinical endpoints, i.e. predominantly due to tumor ulceration.
These 2 mice are currently tumor free 150 days post injection. The other 7 treated mice were euthanized at an average of 86 days due to tumor ulceration without progression. While the median time-to-endpoint (tumor >2000 mm^3) of control mice treated with saline, MC1RL-DOTA-^139La (cold surrogate) and scrambled peptide-DOTA-^225Ac were 22, 24 and 32 days respectively after injection.

MC1R (Hek293/MC1R cells) [1] = target: T1, MC1R (Hek293/MC1R cells) (Homo sapiens, UniProt Q01726); test: Saturation TRF binding assay with europium-chelated compounds; settings: Eu chelate; 20x MC1RL-DOTA used for blocking; two repeats; read-out: Kd, specific saturation binding
T1 construct: expressed in transfected cells; host or cells: Hek293
Description: The binding sequence is 1-Phenylbutyric acid-His(D)Phe-Arg-Trp-Gly-Lys(Ahx-DOTA)-CONH2. Eu is chelated into the conjugated DOTA for lanthanide-based binding assays but ^225Ac, ^68Ga, or ^111In can also be chelated. […] 20×MC1Rl-DOTA was used for blocking. […] Data is the result of two repeats.
The binding sequence is 1-Phenylbutyric acid-His(D)Phe-Arg-Trp-Gly-Lys(DOTA)-CONH2. Eu is chelated into the conjugated DOTA for lanthanide-based binding assays but ^225AC, ^68Ga, or ^111In can also be chelated. […] 20×MC1Rl-DOTA was used for blocking. […] Data is the result of two repeats.
The binding sequence is 1-Phenylbutyric acid-His(D)Phe-Arg-Trp-Gly-Lys(D-di-Glu-DOTA)-CONH2. Eu is chelated into the conjugated DOTA for lanthanide-based binding assays but ^225Ac, ^68Ga, or ^111In can also be chelated. […] 20×MC1Rl-DOTA was used for blocking. […] Data is the result of two repeats.
Time-resolved fluorescence (TRF) competition binding assays were performed to determine binding affinities of these DOTA conjugates (FIG. 2). The TRF method takes advantage of the long fluorescence lifetime of the lanthanide Europium and can detect less than one attomole in a multiwell plate sample. Hek293/MC1R cells (Hek293 cells engineered to over-express MC1R) were used for the binding assays. […]

MC1R (Hek293/MC1R cells) [2] = target: T1, MC1R (Hek293/MC1R cells); test: Time-resolved fluorescence (TRF) competition binding assay; settings: competitive binding, read-out: binding affinity to MC1R (Ki)
Experimental: FIG. 2 is a graph from representative competitive binding assays of the ^139La- and ^69Ga-DOTA-MC1RL peptides.
Time-resolved fluorescence (TRF) competition binding assays were performed to determine binding affinities of these DOTA conjugates (FIG. 2). The TRF method takes advantage of the long fluorescence lifetime of the lanthanide Europium and can detect less than one attomole in a multiwell plate sample. Hek293/MC1R cells (Hek293 cells engineered to over-express MC1R) were used for the binding assays. Saturation TRF binding assays were performed using versions of the compounds with chelated europium to determine specific and non-specific binding (FIG. 17-20).

[3] = MTD study of the radiotherapeutic agent; assay type: in vivo, mice
Description: FIGS. 6A, 6B and 6C are graphs from a MTD study of ^225Ac-DOTA-MC1RL radio-therapeutic agent.
(Table 3). […] Blood urea nitrogen (BUN) (FIG. 6B) and blood creatinine (FIG. 6C) levels, and pathology of a range of tissues including heart, lungs, brain, kidney and liver were all unremarkable.

[4] = in vivo fluorescence imaging and mathematical model; cited from earlier work
MC1R = MC1R (Homo sapiens, UniProt Q01726); settings: read-out: binding affinity (Ki); cited from earlier work
[5] = tested on: A375/MC1R and A375 xenograft tumors; test: In vivo tumor targeting, bilateral A375/MC1R and A375 xenografts, fluorescence imaging; design: species or system nude mice; settings: 4 h post-injection, i.v., P≤0.05, n=3
Experimental: FIG. 3 contains data from in vivo targeting of a MC1R specific probe. Left mice: Representative images of normalized fluorescence intensity maps overlaid on mice bearing xenograft tumors. […] A blocking experiment (right mouse) was performed by coinjection of 0.25 μg unlabeled NDP-α-MSH and 3 nmol/kg of the MC1RL-800 probe. […] Right mouse: Representative tomographic image of a mouse bearing a B16F10 xenograft tumor at 4 h after injection of 3 nmol/kg of the MC1RL-800 imaging probe using the FMT 2500 LX quantitative fluorescence tomography in vivo imaging system (PerkinElmer).
Previously, to investigate tumor targeting of the infrared conjugate of the ligand in vivo, bilateral subcutaneous xenograft tumors with A375/MC1R engineered cells in the right flank and A375 parental cells with relatively low MC1R expression in the left flank of nude mice and MC1RL-800 probe was injected intravenously and fluorescence accumulation was monitored over time. […] In vivo blocking studies were performed to determine that probe retention in the tumor was due to specific binding (FIG. 3, left mice).

T1 sequence (Q01726 whole entry): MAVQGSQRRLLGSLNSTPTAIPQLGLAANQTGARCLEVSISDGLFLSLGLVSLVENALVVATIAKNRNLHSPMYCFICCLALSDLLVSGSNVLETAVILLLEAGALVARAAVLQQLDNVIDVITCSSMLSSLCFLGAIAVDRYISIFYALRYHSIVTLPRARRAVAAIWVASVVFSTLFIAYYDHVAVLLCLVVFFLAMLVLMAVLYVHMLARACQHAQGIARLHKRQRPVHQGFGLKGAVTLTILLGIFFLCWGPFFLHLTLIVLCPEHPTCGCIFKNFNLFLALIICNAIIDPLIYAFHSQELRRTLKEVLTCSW
Sequence of MC1R (Q01726 whole entry): as above

## N=C(N)NCCC[C@H](NC(=O)[C@@H](Cc1ccccc1)NC(=O)[C@H](Cc1c[nH]cn1)NC(=O)CCCc1ccccc1)C(=O)N[C@@H](Cc1c[nH]c2ccccc12)C(=O)NCC(=O)N[C@@H](CCCCNC(=O)CCCCCNC(=O)CN1CCN(CC(=O)O)CCN(CC(=O)O)CCN(CC(=O)O)CC1)C(N)=O (139La complex, metal not drawn) [^139La-DOTA-MC1RL] ({Butanoyl(4-Ph)}-H[dF]RWGK([Ahx-DOTA])-NH2)
A375/MC1R tumors
  median time-to-endpoint (tumor >2000 mm^3): 24 days

## N=C(N)NCCC[C@H](NC(=O)[C@@H](Cc1ccccc1)NC(=O)[C@H](Cc1c[nH]cn1)NC(=O)CCCc1ccccc1)C(=O)N[C@@H](Cc1c[nH]c2ccccc12)C(=O)NCC(=O)N[C@@H](CCCCNC(=O)CCCCCNC(=O)CN1CCN(CC(=O)O)CCN(CC(=O)O)CCN(CC(=O)O)CC1)C(N)=O [1-Phenylbutyric acid-His(D)Phe-Arg-Trp-Gly-Lys(Ahx-DOTA)-CONH2] ({Butanoyl(4-Ph)}-H[dF]RWGK([Ahx-DOTA])-NH2)
MC1R (Hek293/MC1R cells) [1]
  Kd: 0.88 nM

## N=C(N)NCCC[C@H](NC(=O)[C@@H](Cc1ccccc1)NC(=O)[C@H](Cc1c[nH]cn1)NC(=O)CCCc1ccccc1)C(=O)N[C@@H](Cc1c[nH]c2ccccc12)C(=O)NCC(=O)N[C@@H](CCCCNC(=O)CCCCCNC(=O)CN1CCN(CC(=O)O)CCN(CC(=O)O)CCN(CC(=O)O)CC1)C(N)=O [DOTA-MC1RL] ({Butanoyl(4-Ph)}-H[dF]RWGK([Ahx-DOTA])-NH2)
MC1R (Hek293/MC1R cells) [2]
  Ki: 0.24 nM and 0.3 nM

## N=C(N)NCCC[C@H](NC(=O)[C@@H](Cc1ccccc1)NC(=O)[C@H](Cc1c[nH]cn1)NC(=O)CCCc1ccccc1)C(=O)N[C@@H](Cc1c[nH]c2ccccc12)C(=O)NCC(=O)N[C@@H](CCCCNC(=O)CCCCCNC(=O)CN1CCN(CC(=O)O)CCN(CC(=O)O)CCN(CC(=O)O)CC1)C(N)=O [^225Ac-DOTA-MC1RL, metal not drawn] ({Butanoyl(4-Ph)}-H[dF]RWGK([Ahx-DOTA])-NH2)
[3]; MTD study
  overall tolerability: tolerated extremely well
[3]; range of radioactivities
  behavior in MTD study: no signs of altered behavior
  blood creatinine level: unremarkable
  blood urea nitrogen (BUN) level: unremarkable
  pathology of tissues including heart, lungs, brain, kidney and liver: unremarkable
[3]; range of radioactivities, weight gain decreased with increased activity
  weight gain in MTD study: All mice gained weight

## MC1RL-800: near-infrared fluorescent (NIRF) dye conjugated analog of MC1RL, imaging probe ({1‑Phenylbutyric acid}-H[dF]RWGK-NH2; also: NIR dye 800 conjugate, site not given here)
[4]
  clearance: rapid renal clearance
  crossing of the blood brain barrier (BBB): does not cross the BBB
MC1R
  Ki: 0.4 ± 0.1 nM
[5]
  normalized fluorescence signal of low-MC1R A375 tumors compared to A375/MC1R tumors: significantly lower normalized fluorescence signal

Reference: patent US11406723B2, “Radiotherapeutic and companion imaging agents to target MC1R” (H. LEE MOFFITT CANCER CENTER AND RESEARCH INSTITUTE, INC., priority 2015, dated 2022)
